Source: publication PMC10163345 (Journal of Cell Science, 2023)
Where no end group is shown, it is not given here.

Molecular target: T1, constitutively active truncated His-tagged WT calcineurin (6×His–CNAαWT:CNB) (human | , UniProt Q08209 1-392; P63098 1-170)
T1 construct: human CNAα (PPP3CA), truncated at residue 392, WT; calcineurin B subunit (PPP3R1, amino acids 1–170), expressed in tandem with CNAα; p11 vector (PSI:Biology-Materials Repository); held on His-tag Dynabeads in the pull-down; also called CNWT; source: E. coli BL21 (DE3), purified (Ni-NTA agarose, dialysed)
Test: pull-down; 1–2 μg 6×His-tagged CN bound to His-Tag Dynabeads; 7–10 μg purified GST-tagged peptide added, 2 h at 4°C; 50 mM Tris-HCl pH 7.5, 150 mM NaCl, 0.1% Tween 20, 1 mM β-mercaptoethanol, 15 mM imidazole, 0.5 mg/ml BSA; immunoblot
Conditions: both partners purified

T1 sequence (Q08209 1-392, chain 1 of 2): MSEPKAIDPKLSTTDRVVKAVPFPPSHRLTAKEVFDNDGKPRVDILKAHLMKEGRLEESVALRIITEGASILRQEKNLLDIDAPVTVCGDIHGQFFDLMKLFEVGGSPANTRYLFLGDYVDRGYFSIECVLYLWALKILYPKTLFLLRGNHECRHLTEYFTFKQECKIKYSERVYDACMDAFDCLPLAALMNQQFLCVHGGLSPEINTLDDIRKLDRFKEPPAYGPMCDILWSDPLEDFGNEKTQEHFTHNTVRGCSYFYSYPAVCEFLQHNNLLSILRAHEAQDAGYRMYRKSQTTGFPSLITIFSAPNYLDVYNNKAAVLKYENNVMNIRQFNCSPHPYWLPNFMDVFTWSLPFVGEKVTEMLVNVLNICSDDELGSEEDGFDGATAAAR
T1 sequence (P63098 whole entry, chain 2 of 2, the tested form may be a part): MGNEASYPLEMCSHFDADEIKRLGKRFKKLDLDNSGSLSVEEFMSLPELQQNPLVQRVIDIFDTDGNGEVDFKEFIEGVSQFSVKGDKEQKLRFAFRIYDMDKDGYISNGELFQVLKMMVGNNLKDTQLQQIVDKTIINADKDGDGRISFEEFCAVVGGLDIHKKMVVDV

binding result: binds
B1: GST-tagged POC5 PxIxIT peptide (POC5 PDVRIS) (peptide)
chain: KGELVPDVRISTIHDI
modifications: also: GST-tagged
notes: 16mer of human POC5 with the PxIxIT motif PDVRIS (residues 35–40 of Q8NA72-3) in the centre; pGEX-4T-3 vector; also called WT POC5 peptide; source: E. coli BL21 (DE3), purified (Glutathione Sepharose 4B, dialysed)
